# In publication PMC2174254:
# Like-named read-outs stand apart in the source and are kept apart here.
# Experiments:
# Assay in all cases: cross-linking
# [1] = biological target: PDI deletion mutant Δ252–277 (S. cerevisiae) (UniProt P17967)
# [2] = biological target: PDI deletion mutant Δ222–302 (S. cerevisiae) (UniProt P17967)
# [3] = biological target: PDI deletion mutant Δ222–302 (S. cerevisiae) (UniProt P17967); remark: listed apart in the source
# [4] = biological target: Protein disulfide isomerase (PDI), wild type, S. cerevisiae (S. cerevisiae) (UniProt P17967)
# [5] = biological target: BiP, heavy chain binding protein (S. cerevisiae (endogenous in yeast microsomes)) (UniProt P16474)
# BiP, heavy chain binding protein (S. cerevisiae (endogenous in yeast microsomes)), sequence (P16474 43-682): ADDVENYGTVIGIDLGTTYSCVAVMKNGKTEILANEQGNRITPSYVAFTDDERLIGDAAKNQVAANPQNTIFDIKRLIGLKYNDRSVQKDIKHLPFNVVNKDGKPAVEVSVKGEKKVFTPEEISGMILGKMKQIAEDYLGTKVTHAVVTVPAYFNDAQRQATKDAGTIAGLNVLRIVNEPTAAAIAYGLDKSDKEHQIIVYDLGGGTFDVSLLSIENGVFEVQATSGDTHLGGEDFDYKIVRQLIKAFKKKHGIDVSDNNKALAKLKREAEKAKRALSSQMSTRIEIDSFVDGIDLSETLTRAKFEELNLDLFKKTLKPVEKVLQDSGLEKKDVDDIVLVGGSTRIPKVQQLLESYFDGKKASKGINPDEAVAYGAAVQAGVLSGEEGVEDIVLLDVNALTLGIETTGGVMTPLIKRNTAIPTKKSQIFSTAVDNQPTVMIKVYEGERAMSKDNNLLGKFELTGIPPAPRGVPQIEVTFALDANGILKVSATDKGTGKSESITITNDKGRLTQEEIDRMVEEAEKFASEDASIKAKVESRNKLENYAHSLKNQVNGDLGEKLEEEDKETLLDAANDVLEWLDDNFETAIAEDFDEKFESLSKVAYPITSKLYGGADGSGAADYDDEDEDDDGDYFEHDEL
substance,measurement,setting,value
"N-benzoyl-NYT-amide, synthetic glycosylation acceptor peptide","peptide binding, percent of wild-type (% of wild-type)",[1],38
same,"peptide binding, percent of wild-type (% of wild-type)",[2],14
same,"peptide binding, percent of wild-type (% of wild-type)",[3],13
"Δgpαf, mutant glycosylation site-free pro-α factor (natural protein)",percent of the Δgpαf in the sample cross-linked to PDI,[4],7%
same,stoichiometry N,[4],1
same,percent of the Δgpαf in the sample cross-linked to BiP,[5],10%
same,Δgpαf bound to BiP in sec61-32 microsomes relative to wild-type microsomes,[5],2.1 fold
same,Δgpαf bound to BiP in sec61-41 microsomes relative to wild-type microsomes,[5],1.3 fold
same,fold lower affinity than wild-type PDI,[1],9 fold
same,"intensity of the cross-linking product, percent of wild-type (% of wild-type)",[1],24
same,fold lower affinity than wild-type PDI,[2],5 fold
same,"intensity of the cross-linking product, percent of wild-type (% of wild-type)",[2],43
"gpαf, glycopro-α factor (wild type) (natural protein)",fold lower intensity of the cross-linking product than that with Δgpαf,[4],8 fold
